# From patent publication US20200164085A1 (Merck Sharp & Dohme, published 2020)
# T1: human CD74 (human, UniProt P04233 1-296)
# T1 sequence (looked up): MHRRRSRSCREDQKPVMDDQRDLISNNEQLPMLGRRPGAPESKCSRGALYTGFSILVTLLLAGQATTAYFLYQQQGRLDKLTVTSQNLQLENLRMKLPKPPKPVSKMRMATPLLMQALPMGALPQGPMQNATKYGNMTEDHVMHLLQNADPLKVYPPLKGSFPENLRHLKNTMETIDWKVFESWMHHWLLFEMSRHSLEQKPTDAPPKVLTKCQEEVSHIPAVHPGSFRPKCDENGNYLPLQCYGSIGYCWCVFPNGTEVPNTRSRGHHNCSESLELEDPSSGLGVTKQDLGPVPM
# B1: ADC 12-5 (anti-hCD74 (LL1) conjugated to Linker 2-7) (antibody, human IgG1, kappa, V domains shown)
# VH: QVQLQQSGSELKKPGASVKVSCKASGYTFTNYGVNWIKQAPGQGLQWMGWINPNTGEPTFDDDFKGRFAFSLDTSVSTAYLQISSLKADDTAVYFCSRSRGKNEAWFAYWGQGSLVTVSS
# VL: DIQLTQSPLSLPVTLGQPASISCRSSQSLVHRNGNTYLHWFQQRPGQSPRLLIYTVSNRFSGVPDRFSGSGSGTDFTLKISRVEAEDVGVYFCSQSSHVPPTFGAGTRLEIKR
# modifications: position 121 is para-azido phenylalanine (pAzF), conjugated to dexamethasone drug-linker 2-7
# B2: ADC 12-4 (anti-hCD74 (LL1) conjugated to Linker 1-4) (antibody, human IgG1, kappa, V domains shown)
# VH: B1 VH
# VL: B1 VL
# modifications: position 121 is para-azido phenylalanine (pAzF), conjugated to dexamethasone drug-linker 1-4
# B3: ADC 12-9 (anti-hCD74 (LL1) conjugated to Linker 6-2) (antibody, human IgG1, kappa, V domains shown)
# VH: B1 VH
# VL: B1 VL
# modifications: position 121 is para-azido phenylalanine (pAzF), conjugated to dexamethasone drug-linker 6-2
# B4: ADC 12-10 (anti-hCD74 (LL1) conjugated to Linker 9-4) (antibody, human IgG1, kappa, V domains shown)
# VH: B1 VH
# VL: B1 VL
# modifications: position 121 is para-azido phenylalanine (pAzF), conjugated to budesonide drug-linker 9-4
# B5: ADC 12-6 (anti-hCD74 (LL1) conjugated to Linker 3-4) (antibody, human IgG1, kappa, V domains shown)
# VH: B1 VH
# VL: B1 VL
# modifications: position 121 is para-azido phenylalanine (pAzF), conjugated to dexamethasone drug-linker 3-4
# B6: ADC 12-7 (anti-hCD74 (LL1) conjugated to Linker 4-3) (antibody, human IgG1, kappa, V domains shown)
# VH: B1 VH
# VL: B1 VL
# modifications: position 121 is para-azido phenylalanine (pAzF), conjugated to dexamethasone drug-linker 4-3
# Molecular target: T1, human CD74
# Assay: cell-based or functional assay
"EC50, GILZ mRNA, HUT-78 cells","EC50, GILZ mRNA, SUDHL-6 cells","Emax, GILZ mRNA, HUT-78 cells","Emax, GILZ mRNA, SUDHL-6 cells",Binder
1.32 µg/mL,0.4 µg/mL,4.13,3.4,B1
1.08 µg/mL,0.99 µg/mL,3.95,3.44,B2
> 30 µg/mL,> 30 µg/mL,2.55,6.48,B3
0.2 µg/mL,0.21 µg/mL,6.47,5.89,B4
1.87 µg/mL,0.47 µg/mL,4.61,3.33,B5
> 30 µg/mL,14.3 µg/mL,1.93,1.52,B6
